Biological target: CDC5L–GFP (UniProt Q99459)
Test: affinity purification with mass spectrometry

Sequence of HSP70 (P11142 whole entry): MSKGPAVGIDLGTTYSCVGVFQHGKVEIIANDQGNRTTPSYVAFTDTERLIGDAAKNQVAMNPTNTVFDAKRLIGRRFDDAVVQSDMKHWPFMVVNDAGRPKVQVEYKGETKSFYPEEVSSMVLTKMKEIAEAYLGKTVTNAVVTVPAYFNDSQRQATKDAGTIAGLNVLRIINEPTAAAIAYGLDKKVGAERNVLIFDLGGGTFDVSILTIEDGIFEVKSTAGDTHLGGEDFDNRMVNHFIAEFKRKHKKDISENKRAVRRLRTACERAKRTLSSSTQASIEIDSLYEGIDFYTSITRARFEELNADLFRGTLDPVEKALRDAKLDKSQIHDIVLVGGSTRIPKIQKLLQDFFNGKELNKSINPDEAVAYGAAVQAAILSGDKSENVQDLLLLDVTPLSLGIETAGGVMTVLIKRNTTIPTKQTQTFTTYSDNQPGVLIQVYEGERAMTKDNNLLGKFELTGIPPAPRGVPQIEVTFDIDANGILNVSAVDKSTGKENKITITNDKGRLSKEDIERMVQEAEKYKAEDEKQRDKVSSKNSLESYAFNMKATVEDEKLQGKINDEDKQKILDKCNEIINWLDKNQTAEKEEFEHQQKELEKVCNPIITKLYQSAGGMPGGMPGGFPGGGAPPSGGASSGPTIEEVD
Sequence of CDC5L–GFP (Q99459 whole entry): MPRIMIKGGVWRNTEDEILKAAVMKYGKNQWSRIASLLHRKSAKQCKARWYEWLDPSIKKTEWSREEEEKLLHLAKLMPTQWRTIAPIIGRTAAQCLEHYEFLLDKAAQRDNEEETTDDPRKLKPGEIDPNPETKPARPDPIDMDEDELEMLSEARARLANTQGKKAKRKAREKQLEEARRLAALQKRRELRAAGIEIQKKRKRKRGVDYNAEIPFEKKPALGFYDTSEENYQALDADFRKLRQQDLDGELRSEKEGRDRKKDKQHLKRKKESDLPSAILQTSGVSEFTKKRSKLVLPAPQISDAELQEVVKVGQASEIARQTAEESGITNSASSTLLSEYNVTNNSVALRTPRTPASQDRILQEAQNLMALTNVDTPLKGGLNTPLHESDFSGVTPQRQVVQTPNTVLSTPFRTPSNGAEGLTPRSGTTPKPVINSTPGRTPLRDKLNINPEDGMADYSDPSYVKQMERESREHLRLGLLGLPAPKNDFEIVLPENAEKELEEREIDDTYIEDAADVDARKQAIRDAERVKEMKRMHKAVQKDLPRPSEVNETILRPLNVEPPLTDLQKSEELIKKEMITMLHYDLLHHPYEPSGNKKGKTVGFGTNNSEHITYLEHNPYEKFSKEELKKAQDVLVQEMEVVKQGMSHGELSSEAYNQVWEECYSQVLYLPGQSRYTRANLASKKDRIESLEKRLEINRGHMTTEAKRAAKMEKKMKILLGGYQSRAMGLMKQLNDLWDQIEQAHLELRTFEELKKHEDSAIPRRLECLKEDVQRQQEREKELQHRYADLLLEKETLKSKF

## HSP70 (from UniProt P11142 1-646) (natural protein)
  stoichiometry N (relative to CDC5L): 0.2
  stoichiometry with CDC5L as a dimer (CDC5L 2) (per CDC5L dimer): 0.4

— paper PMC3592467
